Data reported in the supplement of paper PMC10567573.

B1: TMEM40 (parent)
chain: YGETDFHKQDGKAGLFSQEQYERN

Variants of: B1
Assay: protein stability index of a GFP-peptide fusion (GPS, HEK-293T) (PSI 1-6); higher = more stable
Conditions: c terminus: a fixed tail appended
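Further: lentivirally expressed fusions sorted by FACS into six bins by GFP to DsRed ratio, PSI derived from sequencing read proportions per bin multiplied by bin number.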

| Variant | protein stability index |
| --- | --- |
| F6C | 4.54 |
| F6N | 5 |
| F6T | 4.6 |
| F6Y | 4.41 |
| F6H | 5.22 |
| F6I | 4.73 |
| F6W | 2.35 |
| F6D | 5.26 |
| F6S | 5.6 |
| F6R | 4.54 |
| F6P | 4.94 |
| F6M | 4.91 |
| F6L | 4.98 |
| F6A | 5.22 |
| F6E | 5.38 |
| F6V | 5.09 |
| F6K | 4.91 |
| F6Q | 4.36 |
| F6G | 5.25 |
| K12Q | 4.21 |
| K12Y | 3.99 |
| K12L | 3.66 |
| K12V | 4.49 |
| K12R | 4.1 |

| Variant | protein stability index |
| --- | --- |
| K12A | 4.25 |
| K12G | 4.19 |
| K12M | 4.14 |
| K12N | 4.78 |
| K12T | 4.5 |
| K12D | 4.86 |
| K12I | 3.93 |
| K12F | 4.21 |
| K12H | 4.28 |
| K12E | 4.82 |
| K12C | 4.35 |
| K12P | 4.38 |
| K12S | 4.86 |
| K12W | 3.21 |
| D5R | 3.38 |
| D5C | 2.36 |
| D5F | 1.49 |
| D5N | 3.24 |
| D5K | 3.2 |
| D5V | 3.2 |
| D5M | 2.58 |
| D5A | 2.92 |
| D5L | 3.07 |
| D5Y | 2.04 |

| Variant | protein stability index |
| --- | --- |
| D5S | 2.88 |
| D5T | 2.99 |
| D5H | 2.83 |
| D5G | 2.37 |
| D5Q | 3.81 |
| D5E | 4.37 |
| D5P | 4.14 |
| D5I | 3.15 |
| E3W | 3.49 |
| E3F | 3.57 |
| E3G | 2.36 |
| E3C | 3.12 |
| E3P | 3.88 |
| E3I | 3.9 |
| E3S | 1.98 |
| E3R | 3.85 |
| E3T | 3.61 |
| E3Q | 3.71 |
| E3N | 2.46 |
| E3Y | 3.79 |
| E3D | 3.09 |
| E3A | 3.92 |
| E3L | 4.08 |
| E3M | 3.75 |

| Variant | protein stability index |
| --- | --- |
| E3H | 3.23 |
| E3V | 4.38 |
| E3K | 3.55 |
| D10W | 2.27 |
| D10G | 3.24 |
| D10H | 2.77 |
| D10M | 1.47 |
| D10Y | 2.85 |
| D10K | 3.44 |
| D10P | 3.12 |
| D10L | 2.09 |
| D10I | 1.92 |
| D10C | 2.46 |
| D10F | 2.26 |
| D10E | 3.72 |
| D10Q | 2.9 |
| D10V | 2 |
| D10N | 3.92 |
| D10T | 3.04 |
| D10R | 3.37 |
| D10S | 2.96 |
| G2Q | 3.67 |
| G2E | 5.38 |
| G2W | 3.62 |

| Variant | protein stability index |
| --- | --- |
| G2L | 4.46 |
| G2F | 4.61 |
| G2A | 3.49 |
| G2P | 4.95 |
| G2V | 1.6 |
| G2R | 4.66 |
| G2T | 4.11 |
| G2M | 3.92 |
| G2I | 2.65 |
| G2N | 4.78 |
| G2Y | 4.57 |
| G2D | 4.95 |
| G2H | 3.47 |
| G2K | 4.68 |
| G2S | 4.56 |
| G2C | 3.42 |
| S17T | 3.81 |
| S17Y | 3.66 |
| S17P | 4.03 |
| S17I | 3.81 |
| S17H | 3.54 |
| S17N | 4.52 |
| S17V | 4.08 |
| S17D | 3.98 |

| Variant | protein stability index |
| --- | --- |
| S17C | 4.07 |
| S17M | 3.97 |
| S17E | 4.51 |
| S17A | 3.79 |
| S17Q | 4.48 |
| S17K | 3.44 |
| S17R | 4.27 |
| S17L | 3.35 |
| S17G | 3.94 |
| S17F | 3.1 |
| S17W | 1.97 |
| T4I | 4 |
| T4Q | 4.14 |
| T4N | 4.59 |
| T4S | 4.06 |
| T4F | 4.43 |
| T4G | 4.61 |
| T4M | 3.67 |
| T4L | 3.69 |
| T4P | 3.62 |
| T4E | 4.83 |
| T4R | 3.33 |
| T4C | 4.34 |
| T4Y | 4.04 |

| Variant | protein stability index |
| --- | --- |
| T4K | 3.59 |
| T4W | 3.28 |
| T4V | 4.14 |
| T4D | 4.66 |
| T4A | 3.78 |
| T4H | 4.13 |
| H7Q | 4.32 |
| H7T | 4.53 |
| H7G | 4.58 |
| H7S | 4.67 |
| H7M | 3.9 |
| H7F | 1.88 |
| H7E | 4.93 |
| H7K | 4.18 |
| H7I | 4.37 |
| H7A | 4.48 |
| H7P | 4.3 |
| H7W | 3.12 |
| H7L | 3.92 |
| H7V | 4.24 |
| H7R | 4.08 |
| H7Y | 2.17 |
| H7D | 5.38 |
| H7N | 4.91 |

| Variant | protein stability index |
| --- | --- |
| H7C | 4.35 |
| Q9V | 3.6 |
| Q9W | 2.99 |
| Q9S | 4.33 |
| Q9Y | 3.37 |
| Q9G | 3.73 |
| Q9I | 3.71 |
| Q9P | 3.56 |
| Q9D | 5.05 |
| Q9M | 3.17 |
| Q9F | 3.38 |
| Q9H | 3.75 |
| Q9L | 3.49 |
| Q9E | 4.78 |
| Q9K | 3.7 |
| Q9T | 3.85 |
| Q9R | 4.13 |
| Q9N | 4.53 |
| Q9A | 3.96 |
| A13Q | 3.93 |
| A13Y | 3.41 |
| A13G | 4.08 |
| A13S | 3.83 |
| A13C | 3.28 |

| Variant | protein stability index |
| --- | --- |
| A13I | 4.03 |
| A13R | 3.96 |
| A13T | 4.28 |
| A13L | 4.07 |
| A13K | 4.04 |
| A13E | 4.33 |
| A13P | 3.54 |
| A13V | 4.27 |
| A13M | 3.65 |
| A13F | 3.83 |
| A13W | 3.87 |
| A13H | 4.21 |
| A13N | 4.54 |
| A13D | 4.28 |
| E19C | 3.48 |
| E19D | 4.45 |
| E19A | 3.54 |
| E19F | 2.54 |
| Q18K | 4.55 |
| Q18H | 4.29 |
| Q18A | 3.66 |
| Q18G | 4.26 |
| Q18M | 3.23 |
| Q18Y | 3.4 |

| Variant | protein stability index |
| --- | --- |
| Q18V | 3.36 |
| Q18N | 3.66 |
| Q18W | 3.45 |
| Q18R | 3.83 |
| Q18L | 3.81 |
| Q18C | 2.82 |
| Q18T | 3.41 |
| Q18I | 3.58 |
| Q18S | 3.3 |
| Q18F | 3.65 |
| Q18D | 4.5 |
| Q18P | 2.05 |
| Q18E | 4.6 |
| G11A | 4.25 |
| G11K | 4.16 |
| G11P | 3.46 |
| G11Y | 3.75 |
| G11I | 3.9 |
| G11N | 4.32 |
| G11T | 3.68 |
| G11M | 4.58 |
| G11Q | 4.04 |
| G11R | 4.08 |
| G11D | 4.5 |

| Variant | protein stability index |
| --- | --- |
| G11H | 4.16 |
| G11E | 4.68 |
| G11C | 3.77 |
| G11S | 4.55 |
| G11F | 3.86 |
| G11V | 4.21 |
| G11W | 3.2 |
| G14A | 4.02 |
| G14T | 4.06 |
| G14N | 4.47 |
| G14D | 4.79 |
| G14E | 4.63 |
| G14F | 3.69 |
| G14P | 4.34 |
| G14C | 4.18 |
| G14K | 4.32 |
| G14I | 3.93 |
| G14S | 4.68 |
| G14H | 4.06 |
| G14M | 4.45 |
| G14Y | 3.74 |
| G14R | 3.84 |
| G14Q | 4.29 |
| G14W | 2.72 |

| Variant | protein stability index |
| --- | --- |
| G14L | 3.86 |
| G14V | 4.09 |
| F16D | 5.25 |
| F16P | 5.02 |
| F16W | 3.08 |
| F16S | 4.88 |
| F16I | 4.58 |
| F16R | 4.81 |
| F16T | 4.58 |
| F16L | 4.47 |
| F16K | 4.38 |
| F16V | 4.65 |
| F16G | 4.84 |
| F16Q | 5.1 |
| F16H | 5.06 |
| F16E | 4.3 |
| F16M | 4.53 |
| F16Y | 5.04 |
| F16A | 4.97 |
| F16N | 4.91 |
| F16C | 3.78 |
| K8C | 4.5 |
| K8L | 4.29 |
| K8Q | 4.66 |

| Variant | protein stability index |
| --- | --- |
| K8D | 5.12 |
| K8F | 3.77 |
| K8G | 4.31 |
| K8P | 4.7 |
| K8S | 4.66 |
| K8Y | 3.96 |
| K8I | 3.89 |
| K8T | 4.46 |
| K8E | 4.67 |
| K8N | 4.01 |
| K8M | 3.71 |
| K8A | 4.53 |
| K8H | 4.18 |
| K8W | 2.36 |
| K8R | 3.86 |
| K8V | 4.34 |
| L15T | 4.55 |
| L15V | 4.18 |
| L15H | 4.02 |
| L15F | 3.32 |
| L15S | 5.04 |
| L15A | 4.39 |
| L15K | 4.49 |
| L15N | 4.5 |

| Variant | protein stability index |
| --- | --- |
| L15E | 4.66 |
| L15P | 4.89 |
| L15W | 3.8 |
| L15R | 4.43 |
| L15D | 5.02 |
| L15Q | 4.51 |
| L15Y | 3.84 |
| L15M | 4.27 |
| L15G | 4.73 |
| L15C | 4.38 |
| L15I | 4.08 |
| Y1K | 5.01 |
| Y1M | 4.38 |
| Y1Q | 5.3 |
| Y1P | 5.22 |
| Y1I | 4.58 |
| Y1T | 5.14 |
| Y1S | 5.24 |
| Y1N | 4.77 |
| Y1L | 5.45 |
| Y1W | 4.37 |
| Y1R | 5.01 |
